From article PMC4666351, “A novel transcriptional regulator of L-arabinose utilization in human gut bacteria” come the findings set out here.

Data set [1] addresses BtAraR (BT0354), NrtR family transcription factor of Bacteroides thetaiotaomicron (B. thetaiotaomicron). In words: crystal structure; four crystal forms of SeMet BtAraR: apo-1 (R3), apo-2 (I2_(1)3), complex with a 27-bp DNA duplex (P23), complex with L-arabinose (P2_(1)); data at 100 K.
A further data set has as its target T1, BtAraR V92D (Bacteroides thetaiotaomicron (VPI-548 …, UniProt Q8AAV8 1-225, V92D)).
T1 sequence: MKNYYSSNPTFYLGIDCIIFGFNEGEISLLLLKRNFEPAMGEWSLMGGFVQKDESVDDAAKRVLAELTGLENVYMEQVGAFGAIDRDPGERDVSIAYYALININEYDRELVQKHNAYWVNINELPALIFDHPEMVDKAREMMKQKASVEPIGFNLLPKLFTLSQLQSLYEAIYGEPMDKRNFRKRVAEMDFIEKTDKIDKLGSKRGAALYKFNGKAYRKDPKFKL
Nature of the data set: EMSA; 1 uM protein; EMSA: 20 mM Tris-HCl pH 8.0, 150 mM KCl, 5 mM MgCl2, 1 mM DTT, 0.05% NP-40, 2.5% glycerol, 37 C, 30 min; DNA 0.2 nM (0.16 nM in Fig S4), protein 0.25-1 uM. To be noted: protein: recombinant; label: 5'-biotin on one strand; blunt. For orientation: Mobility shift assays separate free from complexed probe on a gel.

The next data set deals with T2, BtAraR R34N (Bacteroides thetaiotaomicron (VPI-548 …, UniProt Q8AAV8 1-225, R34N)).
T2 sequence: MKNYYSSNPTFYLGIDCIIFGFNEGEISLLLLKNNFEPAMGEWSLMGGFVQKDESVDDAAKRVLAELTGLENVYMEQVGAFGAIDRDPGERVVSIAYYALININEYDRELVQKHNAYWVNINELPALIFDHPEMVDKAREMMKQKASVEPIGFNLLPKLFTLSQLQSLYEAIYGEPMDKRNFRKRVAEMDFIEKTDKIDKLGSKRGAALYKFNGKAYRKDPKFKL
Nature of the data set: EMSA; 0.5 mM L-arabinose, 1 uM protein; EMSA: 20 mM Tris-HCl pH 8.0, 150 mM KCl, 5 mM MgCl2, 1 mM DTT, 0.05% NP-40, 2.5% glycerol, 37 C, 30 min; DNA 0.2 nM (0.16 nM in Fig S4), protein 0.25-1 uM. To be noted: protein: recombinant; chain copies: 2; label: 5'-biotin on one strand; blunt.

For another data set, the target named is T3, BtAraR F49Q (Bacteroides thetaiotaomicron (VPI-548 …, UniProt Q8AAV8 1-225, F49Q)).
T3 sequence: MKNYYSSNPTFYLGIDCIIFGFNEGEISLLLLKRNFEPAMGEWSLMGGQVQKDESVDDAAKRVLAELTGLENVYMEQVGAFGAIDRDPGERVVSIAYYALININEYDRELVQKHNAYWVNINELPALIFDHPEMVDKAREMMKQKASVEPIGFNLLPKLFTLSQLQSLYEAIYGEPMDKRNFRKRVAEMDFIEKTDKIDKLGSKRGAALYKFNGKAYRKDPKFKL
The description is as above. To be noted: protein: recombinant; chain copies: 2; label: 5'-biotin on one strand; blunt.

“BtAraR (BT0354), NrtR family transcription factor of Bacteroides thetaiotaomicron (natural protein)”: in data set [1], the stoichiometry N (commonly a count of units in the complex or per binding partner) was 2.

B1: BT0356 (araM) promoter 65-bp (dsDNA)
DNA 1: CCCCCATATAAGAGTGTATTTGATACACCAAACAAAAGTGTTACTTTTACACCCAAAATACCCCC
DNA 2: GGGGGTATTTTGGGTGTAAAAGTAACACTTTTGTTTGGTGTATCAAATACACTCTTATATGGGGG
As for B1, the binding result was “no binding” with BtAraR V92D, “binds” with BtAraR R34N and “binds” with BtAraR F49Q.
